Measured values published in article PMC4237329, “Early Chordate Origin of the Vertebrate Integrin αI Domains” (PLoS ONE, 2014).
Read-outs that look alike come from different tables or passages of the source.

Target: T1, rat tail collagen I (rat, UniProt P02454 152-1207; P02466 86-1125)
T1 construct: collagen α1(I) chain, rat; collagen α2(I) chain, rat; also called rat collagen I; source: bought: Sigma Aldrich (rat tail collagen I)
Test: solid-phase binding assay (Europium-labelled anti-GST antibody, time-resolved fluorescence); 96-well plates coated with rat collagen I; GST-αI domain at various concentrations, one hour at RT, PBS + 2 mM MgCl2; apparent affinity constants from a hyperbolic fit (Hill's equation with h = 1)

T1 sequence (P02454 152-1207, chain 1 of 2): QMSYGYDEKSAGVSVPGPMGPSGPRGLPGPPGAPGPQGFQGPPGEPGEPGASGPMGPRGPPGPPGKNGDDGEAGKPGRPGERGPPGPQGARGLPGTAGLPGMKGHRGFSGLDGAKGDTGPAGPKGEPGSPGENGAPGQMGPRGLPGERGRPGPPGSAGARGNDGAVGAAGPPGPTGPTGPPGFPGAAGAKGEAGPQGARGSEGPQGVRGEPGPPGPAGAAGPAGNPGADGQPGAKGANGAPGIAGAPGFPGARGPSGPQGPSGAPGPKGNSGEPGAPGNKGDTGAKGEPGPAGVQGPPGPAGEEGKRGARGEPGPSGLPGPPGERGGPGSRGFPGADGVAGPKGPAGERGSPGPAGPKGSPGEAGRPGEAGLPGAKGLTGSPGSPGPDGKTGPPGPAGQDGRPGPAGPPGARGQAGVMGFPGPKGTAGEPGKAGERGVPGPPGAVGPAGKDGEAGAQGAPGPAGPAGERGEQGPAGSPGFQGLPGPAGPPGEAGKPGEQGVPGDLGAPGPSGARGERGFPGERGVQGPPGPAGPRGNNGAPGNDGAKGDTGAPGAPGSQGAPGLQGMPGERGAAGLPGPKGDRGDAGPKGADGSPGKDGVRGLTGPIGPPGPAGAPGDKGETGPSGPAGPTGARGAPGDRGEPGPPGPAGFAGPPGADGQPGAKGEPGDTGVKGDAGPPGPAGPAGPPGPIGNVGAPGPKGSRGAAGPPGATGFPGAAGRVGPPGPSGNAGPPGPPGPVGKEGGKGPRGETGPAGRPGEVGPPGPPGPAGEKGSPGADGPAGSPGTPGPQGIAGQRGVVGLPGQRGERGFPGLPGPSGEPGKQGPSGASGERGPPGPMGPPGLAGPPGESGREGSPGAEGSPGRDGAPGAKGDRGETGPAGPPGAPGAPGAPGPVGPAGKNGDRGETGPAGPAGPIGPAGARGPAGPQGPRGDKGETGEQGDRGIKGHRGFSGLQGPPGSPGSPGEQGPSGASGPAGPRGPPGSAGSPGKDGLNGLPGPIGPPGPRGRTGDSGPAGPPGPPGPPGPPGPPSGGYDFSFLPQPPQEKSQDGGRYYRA
T1 sequence (P02466 86-1125, chain 2 of 2): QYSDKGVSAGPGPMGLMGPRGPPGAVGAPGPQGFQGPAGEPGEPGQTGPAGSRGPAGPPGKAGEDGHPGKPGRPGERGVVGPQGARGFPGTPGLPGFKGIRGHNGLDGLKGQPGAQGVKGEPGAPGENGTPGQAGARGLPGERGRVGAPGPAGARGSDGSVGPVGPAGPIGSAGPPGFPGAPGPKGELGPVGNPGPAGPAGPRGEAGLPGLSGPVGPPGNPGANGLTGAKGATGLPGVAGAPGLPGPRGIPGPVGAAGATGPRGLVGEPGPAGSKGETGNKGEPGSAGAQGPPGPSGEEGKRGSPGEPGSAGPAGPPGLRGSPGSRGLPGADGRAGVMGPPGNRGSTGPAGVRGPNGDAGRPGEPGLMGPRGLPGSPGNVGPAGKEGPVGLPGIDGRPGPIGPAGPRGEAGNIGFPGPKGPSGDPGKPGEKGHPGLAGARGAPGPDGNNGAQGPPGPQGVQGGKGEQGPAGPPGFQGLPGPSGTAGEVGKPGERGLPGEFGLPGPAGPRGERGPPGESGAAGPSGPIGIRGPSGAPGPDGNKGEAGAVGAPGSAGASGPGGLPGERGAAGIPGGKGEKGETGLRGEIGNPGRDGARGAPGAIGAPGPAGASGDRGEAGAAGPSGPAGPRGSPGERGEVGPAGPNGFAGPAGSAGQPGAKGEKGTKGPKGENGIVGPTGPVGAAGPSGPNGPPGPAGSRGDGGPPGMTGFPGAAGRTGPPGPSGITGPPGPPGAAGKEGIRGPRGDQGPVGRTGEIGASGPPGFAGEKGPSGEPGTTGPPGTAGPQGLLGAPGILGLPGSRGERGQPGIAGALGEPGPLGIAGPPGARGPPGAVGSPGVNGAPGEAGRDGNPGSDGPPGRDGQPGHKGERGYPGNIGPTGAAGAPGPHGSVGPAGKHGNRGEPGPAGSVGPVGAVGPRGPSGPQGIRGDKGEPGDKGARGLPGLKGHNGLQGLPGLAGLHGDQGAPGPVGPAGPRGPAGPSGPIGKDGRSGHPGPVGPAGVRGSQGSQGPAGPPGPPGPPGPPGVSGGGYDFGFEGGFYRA

Row | Kd [nM] | Kd (both partners purified) [nM] | Molecule
1 | 200 | – | Pma_f1 αI domain (sea lamprey integrin α subunit fragment Pma_f1), GST-fusion protein (domain or fragment)
2 | 195 | – | Pma_f3 αI domain (sea lamprey integrin α subunit fragment Pma_f3), GST-fusion protein (domain or fragment)
3 | – | 375 ± 120 | Pma_f2 αI domain (sea lamprey integrin α subunit fragment Pma_f2), GST-fusion protein (domain or fragment, sea lamprey (Petromyzon marinus), also called Pma αI domains; source: E. coli BL21 tuner (gene synthesized, in pGEX-2T), recombinant GST-fusion protein, "sufficiently pure") ADFQVTSTLTPAAQRCGLFMDIVIVLDGSNSIYPWQEVQNFVINIVKKFHIGPGQSRNGGGSTRFGVRTIHWHLGIARWACEGVQDVENIYSRPFVRTASALCQSLQVVRSEAFSPLFGAREGASKVMIVVTDGESHDSEDLTEAIAACERDNITRYAIAVLGYYKRKNIDPSNFISELKAISSEPEEKHFINVADEAALNDIVGTLGERIFSLEGTV
